Data: patent publication US20240182864A1, “NOVEL CHEMICAL COMBINATIONS AND METHODS OF USE THEREOF, TOWARDS DIFFERENTIATION OF HUMAN PROGENITOR CELLS INTO FUNCTIONAL BETA CELLS” (Salk Institute for Biological Studies, priority 2021, published 2024)

Tested on: H1 hESCs
Experiment: Generation of pancreatic progenitors (stages 1-4) and PP 3D clusters, flow cytometry for PDX1/NKX6.1
Format: cell-based, human
Experimental: hESCs were maintained as feeder-free in mTeSR™1 (STEMCELL Technologies Inc.) according to the manufacturer's instructions. Before differentiation, adherent hESCs (at ˜90% confluence) were rinsed with PBS and then incubated with Accutase (Millipore) for 6-8 min at 37° C. Dissociated single cells were rinsed twice with DMEM/F12 and spun at 300 g for 3 min. The resulting cells were re-suspended in mTeSR™1 which was supplied with 10μM Y27632 (Sigma-Aldrich), and seeded on 1:30 diluted Matrigel (BD Biosciences)-coated dishes at a density of 55,000 cells/cm^2. The next day, the medium was exchanged for mTeSR™MI and maintained for one more day prior to differentiation initiation.
Stage 1: Definitive Endoderm (3 days). […] Each 800 ml MS12 medium was made with 744 ml MCDB131 medium (ThermoFisher), 3.2 ml 45% glucose (Sigma), 20 ml 20% fat-acid free BSA, and 16 ml 7.5% sodium bicarbonate (Gibco).
Stage 2: Posterior Foregut (3 days): after PBS rinse, cells are exposed to MS12 medium with KGF (Peprotech, 50 ng/ml), B27 (Gibco, 100×), Vitamin C (Vc, 0.25 mM, sigma) and dorsomorphin (0.75 μM). Cells were fed with fresh medium daily.
Stage 3: Pancreatic endoderm (3 days): After PBS rinse, cells were exposed to DMEM with B27 (100×), retinoic acid (RA, 2 μM, Sigma), Noggin (100 ng/ml, Peprotech), SANTI (0.25 μM, sigma), Vitamin C (Vc, 0.25 mM, sigma), Pen/Strep (100×, Gibco) and Glutamax (100×, Gibco). Cells were fed with fresh medium every other day.
Stage 4: Pancreatic progenitor (3-4 days): After PBS rinse, cells were exposed to DMEM with B27 (100×), EGF (100 ng/ml, Peprotech)+Nicotinamide (NICO, 10 mM; Sigma)+Noggin (100ng/ml)+Vc (0.25 mM). Cells were fed with fresh medium every other day.
V-bottom plate based aggregation: stage-4 cells were rinsed with PBS and then incubated with Accutase (Millipore) for 10-15 min at 37° C. Dissociated single cells were rinsed twice with DMEM/F12 and spun at 300 g for 3 min. The resulting cells were re-suspended in an aggregation medium supplied with 10μM Y27632 (Sigma-Aldrich). Cell solution with 0.1-0.4 (according to experimental design) million cells was added into each well of V-bottom 96-well plate, followed by a spun at 300 g for 3 min. The plate was put into 37° C. incubator for 8-12 hours to form clusters. Aggregation medium was made of V4b-Medium+heparin (Sigma, H3149, 10 μg/ml)+ZnSO4 (10 μM, sigma, Z0251)+LDN193189 (LDN, Tocris, 100 nM)+T3 (1 μM, Sigma, T6397)+RA ([…])+SANTI (0.25 μM: Tocris)+GABA (1 mM, Sigma)+human EGF (100 ng/ml, Peprotech)+NICO (10 mM)+VC (0.25 mM). V4b-Medium (800 ml) was made of 360 ml MCDB 131 medium+180 ml F12 medium+180 ml KO-DMEM medium+3.9 ml Glucose (45%, Sigma)+80ml 20% FF-BSA+16 ml Sodium Bicarbonate (7.5%)+4 ml ITX+8 ml Pen/Strep+8ml Glutamax: all items were purchased from Thermo Fisher Scientific unless otherwise indicated.
Single-cell suspension from cell cultures: Differentiated hESC cultures were rinsed with PBS and then incubated with 0.25% trypsin-EDTA (Life Technologies) at 37° C. for 1-3 minutes. The trypsin was neutralized with MEF medium. The dissociated cells were rinsed twice in PBS or DMEM/F12 medium for further analysis. For intracellular antibody staining, single cells were fixed in 200 μL of BD Cytofix/Cytoperm Buffer (BD Biosciences) at 4° C. for 20 minutes followed by three washes in BD Perm/Wash Buffer. Fixed cells were incubated in 150 μL of primary antibody buffer at 4° C. for 1 hour, followed by 30 minutes in a secondary antibody (if there is a secondary antibody) buffer after being rinsed twice in Perm/Wash Buffer. Stained cells were washed twice in Perm/Wash Buffer prior to analyses. The acquired data were analyzed by FlowJo.
Efficient generation of PP 3D-clusters is responsible for generating functional βcells. An hPSC reporter line with NKX6.1-NLS-GFP has been generated by homologous recombination (FIG. 1A and data not shown), which aids in the study of functional β cell production protocols. […]

[1] = Constant high-dose of Activin-A (115-115-115 ng/ml day 1-day 2-day 3)
[2] = Constant low-dose of Activin-A (100-100-100 ng/ml day 1-day 2-day 3)
[3] = Decreasing gradient dose of Activin-A (115-110-100 ng/ml day 1-day 2-day 3)

B1: Activin-A: a TGFβ family member used at stage 1 (protein, UniProt P08476 311-426, looked up)
Inhibin beta A chain: GLECDGKVNICCKKQFFVSFKDIGWNDWIIAPSGYHANYCEGECPSHIAGTSGSSLSFHSTVINHYRMRGHSPFANLKSCCVPTKLRPMSMLYYDDGQNIIKKDIQNMIVEECGCS
modifications: Inhibin beta A chain
NKX6.1-positve cells [1]: ~20%-50% | PDX1-positve cells [1]: ~90% | PDX1-postive/NKX6.1-positve cells [1]: ~20%-50% | NKX6.1-positve cells [2]: ~15%-50% | PDX1-positve cells [2]: ~50%-80% | PDX1-postive/NKX6.1-positve cells [2]: ~15%-50% | NKX6.1-positve cells [3]: ~80% | PDX1-positve cells [3]: ~93% | PDX1-postive/NKX6.1-positve cells [3]: ~80% | cell density and cell heterogeneity at stage 4 (constant low-dose Activin-A): appropriate cell density but resulting in high cell heterogeneity at stage 4 | cell proliferation and cell density (high-dose Activin-A): severely reduced cell proliferation and resulted in suboptimal cell density
